Here are results for seven molecules from patent US20090252748A1 (Biogen, published 2009).

Test [1] deals with T1, full-length human Sp35 with an N-terminal HA tag (lysate of transfected COS-1 cells) (human, UniProt Q96FE5 40-620).
T1 construct: used here for all IP columns headed huSp35 / hLINGO-1; also called huSp35 (IP); hLINGO-1 (IP)
T1 sequence: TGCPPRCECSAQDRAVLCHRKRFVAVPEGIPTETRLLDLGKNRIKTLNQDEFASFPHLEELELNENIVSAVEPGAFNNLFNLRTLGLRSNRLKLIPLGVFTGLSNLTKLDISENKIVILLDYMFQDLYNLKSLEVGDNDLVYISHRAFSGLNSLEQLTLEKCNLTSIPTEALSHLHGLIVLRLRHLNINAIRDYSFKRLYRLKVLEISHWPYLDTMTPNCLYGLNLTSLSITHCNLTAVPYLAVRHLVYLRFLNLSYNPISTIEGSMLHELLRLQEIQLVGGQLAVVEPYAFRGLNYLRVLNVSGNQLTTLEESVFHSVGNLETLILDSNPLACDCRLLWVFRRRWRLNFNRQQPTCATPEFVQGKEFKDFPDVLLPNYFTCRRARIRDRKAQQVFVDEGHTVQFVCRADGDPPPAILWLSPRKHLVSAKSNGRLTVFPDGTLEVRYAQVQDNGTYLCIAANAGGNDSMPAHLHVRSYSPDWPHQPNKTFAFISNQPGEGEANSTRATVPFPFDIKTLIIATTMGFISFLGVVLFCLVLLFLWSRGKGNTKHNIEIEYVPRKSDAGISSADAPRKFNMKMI
Put plainly: IP.

The target in test [2] is T2, human Sp35 protein (ELISA, Western, KD; form not stated) (human, UniProt Q96FE5 40-538, limits assumed).
T2 construct: also called huSp35; hLINGO-1
T2 sequence: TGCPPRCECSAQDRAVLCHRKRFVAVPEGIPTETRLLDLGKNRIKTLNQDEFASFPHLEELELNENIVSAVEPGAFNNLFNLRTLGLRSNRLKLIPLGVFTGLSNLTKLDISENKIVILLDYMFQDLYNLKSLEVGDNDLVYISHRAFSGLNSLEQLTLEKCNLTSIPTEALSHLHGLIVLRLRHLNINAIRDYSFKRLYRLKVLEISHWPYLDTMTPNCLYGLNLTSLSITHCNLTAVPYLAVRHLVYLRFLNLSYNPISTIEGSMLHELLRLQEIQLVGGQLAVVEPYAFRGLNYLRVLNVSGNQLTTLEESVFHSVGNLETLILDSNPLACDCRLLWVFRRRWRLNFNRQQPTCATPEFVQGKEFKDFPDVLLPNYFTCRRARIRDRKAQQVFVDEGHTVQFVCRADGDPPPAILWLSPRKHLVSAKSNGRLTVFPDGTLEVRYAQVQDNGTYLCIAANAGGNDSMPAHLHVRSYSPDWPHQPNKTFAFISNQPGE
Put plainly: ELISA.

The target of test [3] is T3, Sp35-Fc fusion protein (human Sp35 residues 1-532 fused to hinge and Fc of human IgG1) (human, UniProt Q96FE5 40-538).
T3 construct: also called LINGO-1-Ig; LINGO-1-Fc; not shown: hinge and Fc region of human IgG1
T3 sequence: T2 sequence
Put plainly: ELISA. The protocol: (§1) In order to determine which regions of the Sp35 polypeptide were bound by the various hybridoma- and phage display-derived monoclonal antibodies produced in Example 2, an ELISA assay was performed using a panel of truncated Sp35 polypeptides, each fused to the hinge and Fc regions of IgG1 by the methods described in Example 1. […] Ovalbumin and BSA were used as controls. […] The affinity of these latter antibodies for mouse and rat Sp35 was restored to the level seen using human Sp35 when amino acid 419 of the mouse or rat Sp35 is changed from histidine (H) to arginine (R). Arginine is the amino acid at position 419 in human Sp35. […] AP substrate was then developed by 10 mg/ml 4 NPP in 0.1 M Glycine, 1 mM MgCl₂, 1 mM ZnCl₂, pH 10.5, and read at O.D. 405.

The target in test [4] is T4, Sp35 fragment 34-532 (ELISA) (human, UniProt Q96FE5 40-538).
T4 sequence: T2 sequence
Nature of the test: ELISA. The protocol:
as §1

For test [5], the target named is T1, full-length human Sp35 with an …. Put plainly: IP. The protocol:
To perform the immunoprecipitation, COS-1 cells expressing Sp35, fused to a hemaglutinin (HA) tag on the N-terminus, were produced by transiently transfecting COS-1 cells with a DNA construct which expresses the full-length Sp35 protein with an HA tag. Cells were harvested 48 hr after transfection and were lysed in 1 ml lysis buffer (50 mM HEPES, pH 7.5, 150 mM NaCl, 1.5 mM MgCl₂, 1 mM EGTA, 1% Triton X-100 and 10% glycerol) for 30 min at 4° C. After centrifugation at 14,000×g for 15 min, the supernatants were incubated with ProteinA/G-Sepharose beads (Santa Cruz) at 4° C. for 1 hr, and then incubated at 4° C. for 1 hr with either the 1A7 or the 2F3 anti-Sp35 murine monoclonal antibodies. The beads were washed 3 times with lysis buffer, boiled in Laemmli sample buffer, subjected to 4-20% SDS-PAGE, and analyzed by Western blotting using an antibody which recognizes the HA tag. As shown on the SDS-PAGE gel, monoclonal antibodies 1A7 and 2F3, immunoprecipitated human and murine Sp35 (FIG. 1). […] Similarly, monoclonal antibodies 1G7, 2B10, 2F3, 3P4C2.2D2, 3P4C8.2G9, Li01, Li03, Li05, Li06, Li07, Li08, Li11, Li12, 7P1D5.1G9 and 3B5.2 immunoprecipitate human or mouse or human and mouse Sp35 (See Table 3B and 3C). Additionally, Li08 immunoprecipitates AP-Sp35 and monoclonal antibodies 1B6.4 and 3E3.1 immunoprecipitate endogenous Sp35 (See Table 3B).
This is another data set of the same source.

For test [6], the target named is T5, human Sp35 protein expressed on transfected cells (human, UniProt Q96FE5 40-620).
T5 construct: also called huSp35; hLINGO-1
T5 sequence: T1 sequence
Nature of the test: FACS.

Where a chain is given by its changes, count along the chain named. Like-named read-outs stand apart in the source and are kept apart here.

B1: 80-D02 (Dli34) Fab (Fab, V domains shown)
VH: EVQLLESGGGLVQPGGSLRLSCAASGFTFSNYEMYWVRQAPGKGLEWVSGIYSSGGITVYADSVKGRFTISRDNSKNTLYLQMNSLRAEDTAVYYCARAAILDWYFDLWGRGTLVTVSS
VL: DIQMTQSPSSLSASVGDRVTITCHASQDISNYLSWYQQKPGKAPKLLIYDAFNLETGVPSRFSGSGSGTDFTFTISSLQPEDFATYYCQHYDNLPFTFGPGTRVAIR
notes: human
As for B1, the binding result in test [1] and in test [2] was “binds” throughout.

B2: 79-G02 (Dli32) Fab (Fab, V domains shown)
VH: EVQLLESGGGLVQPGGSLRLSCAASGFTFSAYMMQWVRQAPGKGLEWVSSISPSGGNTKYADSVKGRFTISRDNSKNTLYLQMNSLRAEDTAVYYCARGDYGYWFDPWGQGTLVTVSS
VL: DIQMTQSPDSLSASVGDRVTITCQASQDISYYLNWYQQKPGMAPKLLIYDAFILEGGAPSRFSGSGSGTDFSFTISNLQPEDIATYFCQQSDQLPVTFGQGTKVEIR
notes: human
With B2, the binding result in test [2] is listed as “binds”.

B3: 3P1D10.2C3 (antibody, mouse IgG1, V domains shown)
VH: QVQLQQSGAELARPGASVKLSCRASGYTFTSSWTQWVKQRPGQGLEWIGAIYPGDGDTRYTQKFKGKATLTADKSSSTAYMQLSSLASEDSAVYYCARHNSYGMDYWGQGTSVTVSS
VL: DIVMTQSPSSLTVTAGEKVTMSCKSSQSLLNSGNQKNYLTWYQQKPGQPPKLLIYWASTRESGVPDRFTGSGSGTDFTLTINSVQAEDLAVYYCQNDYSYPLFTFGSGTKLEIR
notes: murine IgG1
In the case of B3, the binding result in test [3], in test [4], in test [2] and in test [5] was “binds” each time.

B4: 3P1E11.3B7 (antibody, mouse IgG1, V domains shown)
VH: B3 VH
VL: B3 VL with N37S
notes: murine IgG1
Regarding B4, the binding result in test [3], in test [4], in test [2] and in test [5] was “binds” in each case.

B5: 35-E04 (Li03) Fab (Fab, V domains shown)
VH: EVQLLESGGGLVQPGGSLRLSCAASGFTFSQYPMEWVRQAPGKGLEWVSGIYPSGGSTVYADSVKGRFTISRDNSKNTLYLQMNSLRAEDTAVYYCARAGQWLGDFDYWGQGTLVTVSS
VL: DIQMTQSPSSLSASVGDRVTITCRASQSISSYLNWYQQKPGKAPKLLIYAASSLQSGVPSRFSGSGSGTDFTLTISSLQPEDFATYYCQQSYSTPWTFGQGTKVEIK
notes: human, kappa; also called Dli03
For the molecule B5, the binding result in test [2] and in test [5] was “binds” in each case.

B6: 30-B01 (Li11) Fab (Fab, V domains shown)
VH: EVQLLESGGGLVQPGGSLRLSCAASGFTFSSYAMYWVRQAPGKGLEWVSSISTSGGYTGYADSVKGRFTISRDNSKNTLYLQMNSLRAEDTAVYYCARDTSDNDYYYMDVWGKGTTVTVSS
VL: DIQMTQSPSSVSAPIGDRVTITCRASQEIANYLAWYQQKPGKAPKLLIYDTYTLQTDVPPRFSGSGSGTDFTLTISSLQPEDTATYFCQQADIFPLSFGGGTKVEIK
notes: human, kappa; also called Dli11; Li011
Turning to B6, the binding result in test [6], in test [2] and in test [5] was “binds” each time.

B7: 28-D02 (Li10) Fab (Fab, V domains shown)
VH: EVQLLESGGGLVQPGGSLRLSCAASGFTFSTYPMVWVRQAPGKGLEWVSWIGPSGGVTAYADSVKGRFTISRDNSKNTLYLQMNSLRAEDTAVYYCARPYSSGWWDFDLWGRGTLVTVSS
VL: DIQMTQSPSSMSASVGDTVTITCRASQGIGNWLAWYQQKPGKAPTLLIYAASSLESGVPSRFTGSGSSSGIDFTLTISDLHPEDLATYYCQQAQTFPLTFGGGTRVDLK
notes: human, kappa; also called Dli10
For B7, the binding result in test [2] is “binds”.
